The values that follow come from paper PMC11267573, “A Robust α-L-Fucosidase from Prevotella nigrescens for Glycoengineering Therapeutic Antibodies” (ACS Chemical Biology, 2024).

Holding throughout (test): p-nitrophenol release, initial-rate kinetics
The target in one series is T1, MBP-PnfucA (Prevotella nigrescens, UniProt V8CPU0).
T1 construct: gene HMPREF1173_00896; pMAL-c4X, E. coli; poor purity
It counts as biochemical. The conditions noted are these: assay details in supplement; MBP fusion. An excerpt: p-nitrophenol release, initial-rate kinetics on MBP-PnfucA

A further series addresses T2, MBP-AlfC (Lacticaseibacillus paracasei, UniProt A0A422MHI3).
T2 construct: gene BN194_28780; pMAL-c4X, E. coli; codon-optimized synthetic gene
T2 sequence (A0A422MHI3 1-344): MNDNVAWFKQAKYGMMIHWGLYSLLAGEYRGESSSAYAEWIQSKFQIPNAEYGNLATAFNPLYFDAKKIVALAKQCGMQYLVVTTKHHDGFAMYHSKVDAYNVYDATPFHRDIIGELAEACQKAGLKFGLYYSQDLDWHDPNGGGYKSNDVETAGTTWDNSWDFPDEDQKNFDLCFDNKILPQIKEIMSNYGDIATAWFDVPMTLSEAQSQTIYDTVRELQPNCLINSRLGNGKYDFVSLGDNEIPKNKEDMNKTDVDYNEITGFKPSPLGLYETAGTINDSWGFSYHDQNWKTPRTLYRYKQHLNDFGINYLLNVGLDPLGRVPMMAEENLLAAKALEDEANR
Format: biochemical. Conditions: assay details in supplement; MBP fusion. The source says: p-nitrophenol release, initial-rate kinetics on MBP-AlfC

Substrate in series [1]: C[C@@H]1O[C@@H](Oc2ccc([N+](=O)[O-])cc2)[C@@H](O)[C@H](O)[C@@H]1O
It counts as biochemical, Prevotella nigrescens. The conditions noted are these: assay details in supplement. The source says: p-nitrophenol release, initial-rate kinetics on Δ20PnfucA

With `C[C@@H]1O[C@@H](Oc2ccc([N+](=O)[O-])cc2)[C@@H](O)[C@H](O)[C@@H]1O` [pNP-Fuc], the Km was 250 ± 20 µM at MBP-PnfucA and 620 ± 60 µM on MBP-AlfC.

B1: Δ20PnfucA (Prevotella nigrescens CC14M) (protein)
chain: QTNSQQQESNNRATTTESVPQKYIPTAENLAARKRFEGFRFGIFLHWGIYSTFAQGEWYLNNKINKDEYAKAASAFYPSYFDADAWISAIKASGAKYITFTSRHHDSFSMFKTKESNYNIVDATPFKRDVLKELANACHKQNIDLHIYYSILDWIREDYPIGRTGLYTGRKLKPNYGTYFNFMKGQVSELLHNYGKVGAIWLDGYWDHDSDSIPFDWRMEEFYRYIHSIQPACLIGNNHHIAPIDGEDFQMFERDLPGENKAGLSGQAISRLPLEACQTMNGMWGYKVSDINYKSTSQLIELLVRSAAKGSNLLLNIGPQPNGELPALALDRLQGIGKWMQQYGETIYETMAGDVAEADWGVSTSKGKKTYLHVLEQDAKTISCALSVKPKRVIDFASRQPLSFHYDKKTKTLTTHIGSHRNVVDYIIEIEK
notes: 20 N-terminal residues (signal peptide) removed; apparent mass ~52 kDa; codon-optimized synthetic gene
With B1, in series [1], the Michaelis-Menten constant (Km) was 0.56 ± 0.05 mM, the kcat was 66.5 ± 2 s⁻¹ and the kcat/Km was 119000 M⁻¹ s⁻¹.
